Data taken from patent US20090010874A1 (published 2009).
Substitutions are numbered along the chain they refer to. Names and notes keep the numbering of the source. Blank lines part the entries; values can stand above or below the binder they belong to.

Assays:
[1] = target: T1, human IL-4 receptor alpha chain on cells (TF-1 cells, primary human T-cell blasts and B cells) (human, UniProt P24394 26-825); test: cell-based or functional assay
T1 sequence (looked up): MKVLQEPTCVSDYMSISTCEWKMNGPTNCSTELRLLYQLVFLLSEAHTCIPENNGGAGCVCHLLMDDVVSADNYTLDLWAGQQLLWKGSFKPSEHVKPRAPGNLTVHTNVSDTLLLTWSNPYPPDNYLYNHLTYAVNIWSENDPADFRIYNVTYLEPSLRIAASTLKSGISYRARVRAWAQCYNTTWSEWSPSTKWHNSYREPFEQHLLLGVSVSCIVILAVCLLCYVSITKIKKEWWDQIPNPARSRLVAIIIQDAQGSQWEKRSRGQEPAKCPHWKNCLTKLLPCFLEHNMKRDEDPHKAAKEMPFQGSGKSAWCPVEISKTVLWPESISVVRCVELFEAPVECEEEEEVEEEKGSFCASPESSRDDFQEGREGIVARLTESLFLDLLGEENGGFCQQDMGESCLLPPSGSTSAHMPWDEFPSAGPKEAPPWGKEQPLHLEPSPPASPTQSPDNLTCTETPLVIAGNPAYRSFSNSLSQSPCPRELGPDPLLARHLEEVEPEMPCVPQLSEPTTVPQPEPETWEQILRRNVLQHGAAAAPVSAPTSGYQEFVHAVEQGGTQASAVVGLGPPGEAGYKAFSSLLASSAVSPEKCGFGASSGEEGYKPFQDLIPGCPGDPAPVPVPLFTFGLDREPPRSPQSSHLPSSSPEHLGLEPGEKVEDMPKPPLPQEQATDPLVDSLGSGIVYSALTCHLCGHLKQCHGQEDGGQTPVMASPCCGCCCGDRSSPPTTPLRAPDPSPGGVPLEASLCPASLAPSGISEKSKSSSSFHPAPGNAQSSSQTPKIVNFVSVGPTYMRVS

[2] = target: T1, human IL-4 receptor alpha chain on …; test: cell-based or functional assay; remark: listed apart in the source
[3] = target: T1, human IL-4 receptor alpha chain on …; test: cell-based or functional assay; remark: listed apart in the source
[4] = target: T2, IL-4 receptor (immobilized on BIAcore CM5 chip) (human, UniProt P24394 26-232, limits assumed); test: BIAcore SPR, IL-4 receptor amine-coupled to CM5 chip, mutein injected, direct binding kinetics
T2 construct: also called IL-4Rα; IL-4 receptor alpha chain
T2 sequence (looked up): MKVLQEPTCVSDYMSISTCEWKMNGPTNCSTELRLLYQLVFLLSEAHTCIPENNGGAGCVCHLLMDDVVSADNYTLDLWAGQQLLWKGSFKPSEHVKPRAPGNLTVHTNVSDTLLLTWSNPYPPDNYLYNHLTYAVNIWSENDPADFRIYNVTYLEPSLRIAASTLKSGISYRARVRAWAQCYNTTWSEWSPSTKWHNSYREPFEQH
Description: IL-4 receptor was immobilized on a BIAcore CM5 research grade sensor chip through amine coupling. The sensor surface was activated with an EDC/NHS pulse. IL-4 receptor was dissolved in 10 mM acetate buffer (pH 5.0) and injected into flowcell 2 followed by a pulse of 1.0M ethanolamine-HCL to deactivate the surface. The immobilization level for the receptor was ˜300 RU. Flowcell 1 was also activated without a ligand to function as a blank. The Biacore Wizard was used to perform kinetics analysis. Candidate IL4RE antagonists were diluted in HBS-EP (running buffer) and injected at 30 ul/minute flow rate for 3 minutes and a dissociation time of 15 minutes. Regeneration of the chip was performed by two 30 second injections of 10 mM Glycine pH2.5 (flow 100 ul/min) to baseline prior to next injection in the concentration series. Dissociation constant (KD) values were calculated for each candidate based on direct binding kinetics (Table 5).

[5] = target: T1, human IL-4 receptor alpha chain on …; test: cell-based or functional assay; remark: listed apart in the source
[6] = target: T1, human IL-4 receptor alpha chain on …; test: cell-based or functional assay; remark: listed apart in the source

B1: IL-4RA (IL-4 double mutein R121D/Y124D, unPEGylated) (ligand)
chain: MHKCDITLQEIIKTLNSLTEQKTLCTELTVTDIFAASKNTTEKETFCRAATVLRQFYSHHEKDTRCLGATAQQFHRHKQLIRFLKRLDRNLWGLAGLNSCPVKEANQSTLENFLERLKTIMDEKDSKCSS
notes: also called BAY 16-9996; IL-4DM
Fold increase in IC50 (relative to IL-4DM), primary T cell blasts [1]: 1 fold | IC50 (nM), primary T cell blast proliferation to IL-4 [1]: 1.07 nM | B-cell IC50, nM (proliferation to IL-4) [2]: 0.86 nM | T-cell blast IC50, nM (proliferation to IL-4) [2]: 3.22 nM | TF-1/IL-4 IC50 [3]: 0.56 nM | TF-1/IL-13 IC50 [3]: 1.17 nM | Kd [4]: 0.11 nM | Fold increase in IC50 (relative to IL-4DM), primary B cells [5]: 1 fold | IC50 (nM), primary B cell proliferation to anti-CD40 and IL-4 [5]: 1.71 nM

B2: IL4-RE-T13D (T13D/R121D/Y124D), unPEGylated (ligand)
chain: B1 chain with T14D
Fold increase in IC50 (relative to IL-4DM), primary T cell blasts [1]: 0.67 fold | IC50 (nM), primary T cell blast proliferation to IL-4 [1]: 0.714 nM | Fold increase in IC50 (relative to IL-4DM), primary B cells [5]: 0.3 fold | IC50 (nM), primary B cell proliferation to anti-CD40 and IL-4 [5]: 0.5 nM

B3: PEGylated T13D-N38C with 40 kDa branched PEG (IL4-RE-T13D-N38C) (ligand)
chain: B1 chain with T14D, N39C
modifications: 40 kDa branched maleimide-PEG on Cys 38 (numbered according to wild type IL-4)
Fold increase in IC50 (relative to IL-4DM), primary T cell blasts [1]: 3.1 fold | IC50 (nM), primary T cell blast proliferation to IL-4 [1]: 3.28 nM | Fold increase in IC50 (relative to IL-4DM), primary B cells [5]: 1.4 fold | IC50 (nM), primary B cell proliferation to anti-CD40 and IL-4 [5]: 2.43 nM

B6: IL4-RE-N105C, PEGylated with linear 22 kD mPEG-maleimide (ligand)
chain: B1 chain with N106C
modifications: linear 22 kD methoxy-polyethylene glycol-maleimide on Cys 105 (numbered according to wild type IL-4)
notes: also called PEG-IL4RE
TF-1/IL-4 IC50 [3]: 2.26 nM | TF-1/IL-13 IC50 [3]: 2.11 nM | Kd [4]: 0.59 nM

B9: IL4-RE-A104C, PEGylated with linear 22 kD mPEG-maleimide (ligand)
chain: B1 chain with A105C
modifications: linear 22 kD methoxy-polyethylene glycol-maleimide on Cys 104 (numbered according to wild type IL-4)
notes: also called PEG-IL4RE
B-cell IC50, nM (proliferation to IL-4) [2]: 3.29 nM | T-cell blast IC50, nM (proliferation to IL-4) [2]: 4.67 nM | TF-1/IL-4 IC50 [3]: 0.55 nM | TF-1/IL-13 IC50 [3]: 1.34 nM | Kd [4]: 0.56 nM

B10: IL4-RE-Q106C, PEGylated with linear 22 kD mPEG-maleimide (ligand)
chain: B1 chain with Q107C
modifications: linear 22 kD methoxy-polyethylene glycol-maleimide on Cys 106 (numbered according to wild type IL-4)
notes: also called PEG-IL4RE
TF-1/IL-4 IC50 [3]: 2.44 nM | TF-1/IL-13 IC50 [3]: 1.95 nM | Kd [4]: 0.52 nM

B11: IL4-RE-S36C, PEGylated with linear 22 kD mPEG-maleimide (ligand)
chain: B1 chain with S37C
modifications: linear 22 kD methoxy-polyethylene glycol-maleimide on Cys 36 (numbered according to wild type IL-4)
notes: also called PEG-IL4RE
TF-1/IL-4 IC50 [3]: 1.2 nM | TF-1/IL-13 IC50 [3]: 1.21 nM | Kd [4]: 1.15 nM

B13: IL4-RE-T28C, PEGylated with linear 22 kD mPEG-maleimide (ligand)
chain: B1 chain with T29C
modifications: linear 22 kD methoxy-polyethylene glycol-maleimide on Cys 28 (numbered according to wild type IL-4)
notes: also called PEG-IL4RE
TF-1/IL-4 IC50 [3]: 2.35 nM | TF-1/IL-13 IC50 [3]: 2.87 nM | Kd [4]: 0.89 nM

Second part, the binder after the results:

Fold increase in IC50 (relative to IL-4DM), primary T cell blasts [1]: 7.4 fold | IC50 (nM), primary T cell blast proliferation to IL-4 [1]: 8 nM | loss of activity in the TF-1 activity assay against PEGylated 38C [6]: ~2 fold | Fold increase in IC50 (relative to IL-4DM), primary B cells [5]: 11.3 fold | IC50 (nM), primary B cell proliferation to anti-CD40 and IL-4 [5]: 19.4 nM
B4: IL-4TM-A104C (R121D/Y124D/A104C) PEGylated with 40 kDa branched maleimide-PEG (ligand)
chain: B1 chain with A105C
modifications: 40 kDa branched maleimide-PEG on Cys 104 (numbered according to wild type IL-4)

B-cell IC50, nM (proliferation to IL-4) [2]: 3.73 nM | T-cell blast IC50, nM (proliferation to IL-4) [2]: 13.9 nM | TF-1/IL-4 IC50 [3]: 0.82 nM | TF-1/IL-13 IC50 [3]: 1.22 nM | Kd [4]: 0.74 nM
B5: IL4-RE-K37C, PEGylated with linear 22 kD mPEG-maleimide (ligand)
chain: B1 chain with K38C
modifications: linear 22 kD methoxy-polyethylene glycol-maleimide on Cys 37 (numbered according to wild type IL-4)
notes: also called PEG-IL4RE

Fold increase in IC50 (relative to IL-4DM), primary T cell blasts [1]: 4.6 fold | IC50 (nM), primary T cell blast proliferation to IL-4 [1]: 4.93 nM | Fold increase in IC50 (relative to IL-4DM), primary B cells [5]: 7.6 fold | IC50 (nM), primary B cell proliferation to anti-CD40 and IL-4 [5]: 13 nM
B7: IL-4TM-A104C (R121D/Y124D/A104C) PEGylated with 30 kDa linear maleimide-PEG (ligand)
chain: B1 chain with A105C
modifications: 30 kDa linear maleimide-PEG on Cys 104 (numbered according to wild type IL-4)

Fold increase in IC50 (relative to IL-4DM), primary T cell blasts [1]: 2.3 fold | IC50 (nM), primary T cell blast proliferation to IL-4 [1]: 2.43 nM | Fold increase in IC50 (relative to IL-4DM), primary B cells [5]: 4 fold | IC50 (nM), primary B cell proliferation to anti-CD40 and IL-4 [5]: 6.85 nM
B8: IL-4TM-N38C (R121D/Y124D/N38C) PEGylated with 40 kDa branched maleimide-PEG (ligand)
chain: B1 chain with N39C
modifications: 40 kDa branched maleimide-PEG on Cys 38 (numbered according to wild type IL-4)

B-cell IC50, nM (proliferation to IL-4) [2]: 3.33 nM | T-cell blast IC50, nM (proliferation to IL-4) [2]: 9.94 nM | TF-1/IL-4 IC50 [3]: 0.7 nM | TF-1/IL-13 IC50 [3]: 1.24 nM | Kd [4]: 0.77 nM
B12: IL4-RE-N38C, PEGylated with linear 22 kD mPEG-maleimide (ligand)
chain: B1 chain with N39C
modifications: linear 22 kD methoxy-polyethylene glycol-maleimide on Cys 38 (numbered according to wild type IL-4)
notes: also called PEG-IL4RE
